The experiment deals with GFP-CLASP2 S1234A mutant (human). The experiment in a line: co-IP.

As for “Polo-like kinase 1 (Plk1), endogenous (from UniProt P53350 1-603) (natural protein)”, the reduction of co-immunoprecipitated Plk1 relative to wild type is 40%.

The record behind these values is publication PMC3471233.
